Earlier results on 1 substance are cited in publication PMC3423339.

In general, pKd refers to the Kd on a negative log10 scale, so that one unit is a factor of ten.

pKd: −log10 of the molar value.

This data set addresses Alk1 (Homo sapiens) (UniProt P37023).
Sequence of UniProt P37023 (P37023 22-118): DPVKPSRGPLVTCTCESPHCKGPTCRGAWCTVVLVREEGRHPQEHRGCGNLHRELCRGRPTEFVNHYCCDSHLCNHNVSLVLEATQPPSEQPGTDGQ

Regarding BMP9 (from UniProt Q9UK05), the pKd was 12.00.
